Data published in US20250277030A1 (Zymeworks, published 2025).
Like-named read-outs stand apart in the source and are kept apart here.

Key:
[1] = target: T1, human sodium-dependent phosphate transporter 2B (NaPi2b) (human, UniProt O95436 1-690); test: flow cytometry, HEK293-6e cells transfected with human NaPi2b
T1 construct: UniProt ID is given as 095436 [sic]; also called hNaPi2b; Hu NaPi2b
T1 sequence: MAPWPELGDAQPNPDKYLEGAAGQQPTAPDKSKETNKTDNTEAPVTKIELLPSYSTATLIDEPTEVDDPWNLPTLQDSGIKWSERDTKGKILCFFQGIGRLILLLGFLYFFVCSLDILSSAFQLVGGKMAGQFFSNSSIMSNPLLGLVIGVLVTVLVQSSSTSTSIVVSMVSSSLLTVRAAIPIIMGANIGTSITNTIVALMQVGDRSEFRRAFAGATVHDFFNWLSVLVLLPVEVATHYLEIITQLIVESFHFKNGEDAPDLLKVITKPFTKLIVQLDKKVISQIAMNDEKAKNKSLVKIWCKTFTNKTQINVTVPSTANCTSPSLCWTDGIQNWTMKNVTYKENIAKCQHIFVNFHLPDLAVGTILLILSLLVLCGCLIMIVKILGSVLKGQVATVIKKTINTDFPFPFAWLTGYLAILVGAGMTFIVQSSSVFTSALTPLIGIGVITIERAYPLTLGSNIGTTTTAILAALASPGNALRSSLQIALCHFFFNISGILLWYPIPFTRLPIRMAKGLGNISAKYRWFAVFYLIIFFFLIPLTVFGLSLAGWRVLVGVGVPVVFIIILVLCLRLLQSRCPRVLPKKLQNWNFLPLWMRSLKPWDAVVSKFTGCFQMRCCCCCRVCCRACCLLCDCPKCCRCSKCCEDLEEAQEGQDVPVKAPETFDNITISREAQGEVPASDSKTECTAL
Procedure: (§1) The binding cross-reactivity of humanized antibody variant v29456 to human, cynomolgus and mouse NaPi2b was assessed by flow cytometry using HEK293-6e transfected cells.
(§2) Briefly, HEK293-6e cells were transfected for ˜24 hours to transiently express human NaPi2b, cynomolgus or mouse NaPi2b, at 1 μg of DNA per 1 million cells. Following transfection, 50,000 cells per well were seeded in V-bottom 96-well plates and incubated with 200 nM of primary antibody for 18-24 hours at 4° C. to prevent internalization. Post-incubation, cells were washed and stained with anti-Human IgG Fc AF647 conjugate (Jackson Immuno Research Labs, West Grove, PA, Cat. No. 109-605-098, Lot. No. 124868) at 4° C. for 1 hour. Following staining and washing, fluorescence was detected by flow cytometry on BD LSRFortessa™ Cell Analyzer (BD Biosciences, Franklin Lake, NJ) with 10,000 minimum events collected per well. The AF647/APC-A GeoMean (fluorescence signal geometric mean, proportional to anti-Human AF647 binding) was calculated for the live singlet cell population for each primary antibody using FlowJo™ v8 software (BD Biosciences, Franklin Lake, NJ). The Bmax and Kd of each primary antibody were calculated using GraphPad Prism Version 9 (GraphPad Software, San Diego, CA)

cynomolgus monkey NaPi2b [2] = target: T2, cynomolgus monkey NaPi2b (cynomolgus monkey, UniProt O95436 1-690 (human entry)); test: flow cytometry, HEK293-6e cells transfected with cynomolgus NaPi2b
T2 construct: Transiently expressed on HEK293-6e cells; also called Cyno NaPi2b
T2 chain: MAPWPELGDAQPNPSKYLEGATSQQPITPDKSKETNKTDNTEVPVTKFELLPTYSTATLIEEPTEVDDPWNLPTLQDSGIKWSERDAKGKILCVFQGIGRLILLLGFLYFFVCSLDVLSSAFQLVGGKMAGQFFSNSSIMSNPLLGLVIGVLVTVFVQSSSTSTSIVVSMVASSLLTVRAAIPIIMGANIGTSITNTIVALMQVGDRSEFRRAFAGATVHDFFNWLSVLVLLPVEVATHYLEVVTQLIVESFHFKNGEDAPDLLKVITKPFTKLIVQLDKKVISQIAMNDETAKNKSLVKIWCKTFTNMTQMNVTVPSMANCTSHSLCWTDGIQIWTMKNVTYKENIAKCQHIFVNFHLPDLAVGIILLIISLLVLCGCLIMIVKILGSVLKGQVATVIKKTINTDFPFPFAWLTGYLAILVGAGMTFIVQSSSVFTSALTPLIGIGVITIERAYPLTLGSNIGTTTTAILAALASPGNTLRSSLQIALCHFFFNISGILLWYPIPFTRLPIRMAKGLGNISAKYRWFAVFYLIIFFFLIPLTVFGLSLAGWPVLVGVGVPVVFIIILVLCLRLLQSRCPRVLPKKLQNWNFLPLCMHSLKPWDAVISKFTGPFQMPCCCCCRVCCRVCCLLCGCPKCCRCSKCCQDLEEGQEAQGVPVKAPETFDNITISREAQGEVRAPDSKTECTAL
Procedure: as §1, §2

[3] = target: T1, human sodium-dependent phosphate …; test: flow cytometry, HEK293-6e cells transfected with human NaPi2b; apparent Kd
Procedure: as §1, §2

[4] = target: T1, human sodium-dependent phosphate …; test: as above; remark: listed apart in the source
Procedure: The binding cross-reactivity of humanized antibody variant v38591 to human NaPi2b, NaPi2a, and NaPi2c was assessed by flow cytometry using HEK293-6e transfected cells.
Following transfection, cells were seeded at 50,000 cells/well in conical-bottom 96-well plates and treated with test antibody for 24 hours at 4° C. to prevent internalization. Following incubation, cells were washed and stained with anti-Human IgG Fc AF647 conjugate (Jackson Immuno Research Labs, West Grove, PA; Cat. No. 109-605-098) or anti-Rabbit IgG F(ab″)2 AF647 conjugate (Jackson Immuno Research Labs, West Grove, PA; Cat. No. 111-605-047). Following incubation and washing, fluorescence was detected by flow cytometry on a BD LSRFortessa™ Cell Analyzer (BD Biosciences, Franklin Lake, NJ) with 1,000 minimum events collected per well. The AF647/APC-A GeoMean (fluorescence signal geometric mean, proportional to anti-Human AF647 binding) was calculated for the live cell population using FlowJo™ Version 10.8.1 (BD Biosciences, Franklin Lake, NJ) and plotted for each test antibody using GraphPad Prism Version 9 (GraphPad Software, San Diego, CA).

cynomolgus monkey NaPi2b [5] = target: T2, cynomolgus monkey NaPi2b; test: flow cytometry, HEK293-6e cells transfected with cynomolgus NaPi2b; apparent Kd
Procedure: as §1, §2

mouse NaPi2b = target: T3, mouse NaPi2b (mouse, UniProt Q9DBP0 1-697); test: flow cytometry, HEK293-6e cells transfected with mouse NaPi2b; apparent Kd above the highest concentration tested
T3 construct: Transiently expressed on HEK293-6e cells; also called Ms NaPi2b
T3 sequence: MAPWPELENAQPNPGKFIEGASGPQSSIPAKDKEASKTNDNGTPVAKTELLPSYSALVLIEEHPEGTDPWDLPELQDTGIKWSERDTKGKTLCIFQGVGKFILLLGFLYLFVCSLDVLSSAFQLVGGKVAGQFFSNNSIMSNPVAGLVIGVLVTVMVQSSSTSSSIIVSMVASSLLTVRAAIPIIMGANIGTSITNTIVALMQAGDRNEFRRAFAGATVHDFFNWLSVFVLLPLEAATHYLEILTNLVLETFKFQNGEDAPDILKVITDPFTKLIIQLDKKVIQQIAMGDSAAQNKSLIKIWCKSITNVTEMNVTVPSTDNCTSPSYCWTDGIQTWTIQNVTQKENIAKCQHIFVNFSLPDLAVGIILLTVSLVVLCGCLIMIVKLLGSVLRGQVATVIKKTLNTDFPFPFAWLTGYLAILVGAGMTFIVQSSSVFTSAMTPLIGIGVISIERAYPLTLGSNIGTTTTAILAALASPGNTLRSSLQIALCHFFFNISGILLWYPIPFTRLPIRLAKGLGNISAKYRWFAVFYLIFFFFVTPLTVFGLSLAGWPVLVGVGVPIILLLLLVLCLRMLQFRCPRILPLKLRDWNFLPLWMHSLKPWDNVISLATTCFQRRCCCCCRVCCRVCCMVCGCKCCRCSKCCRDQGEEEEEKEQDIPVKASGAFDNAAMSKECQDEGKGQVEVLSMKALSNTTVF

Bmax (APC-A GeoMean) [1]: 1900 APC-A GeoMean
Bmax (APC-A GeoMean) (cynomolgus monkey NaPi2b [2]): 2360 APC-A GeoMean
Kd [3]: 1.98 nM
Kd [4]: 1.51 nM
Kd (cynomolgus monkey NaPi2b [5]): 31 nM
Kd (mouse NaPi2b): > 200 nM
B1: v18992, reference anti-NaPi2b antibody MX35 (antibody, human IgG1, kappa)
heavy 1: GQVQLVQSGAEVVKPGASVKMSCKASGYTFTGYNIHWVKQAPGQGLEWIGAIYPGNGDTSYKQKFRGRATLTADTSTSTVYMELSSLRSEDSAVYYCARGETARATFAYWGQGTLVTVSSASTKGPSVFPLAPSSKSTSGGTAALGCLVKDYFPEPVTVSWNSGALTSGVHTFPAVLQSSGLYSLSSVVTVPSSSLGTQTYICNVNHKPSNTKVDKKVEPKSCDKTHTCPPCPAPELLGGPSVFLFPPKPKDTLMISRTPEVTCVVVDVSHEDPEVKFNWYVDGVEVHNAKTKPREEQYNSTYRVVSVLTVLHQDWLNGKEYKCKVSNKALPAPIEKTISKAKGQPREPQVYVYPPSRDELTKNQVSLTCLVKGFYPSDIAVEWESNGQPENNYKTTPPVLDSDGSFALVSKLTVDKSRWQQGNVFSCSVMHEALHNHYTQKSLSLSPG
heavy 2: not shown
light: GDIQMTQSPSSLSASVGDRVTITCSASQDIGNFLNWYQQKPGKTVKVLIYYTSSLYSGVPSRFSGSGSGTDYTLTISSLQPEDFATYYCQQYSKLPLTFGQGTKLELKRTVAAPSVFIFPPSDEQLKSGTASVVCLLNNFYPREAKVQWKVDNALQSGNSQESVTEQDSKDSTYSLSSTLTLSKADYEKHKVYACEVTHQGLSSPVTKSFNRGEC
